# Results reported in paper PMC3273806 (Nucleic Acids Research, 2011).
# B1: ^HisRAD18^ΔN1 (residues 113-495) (domain or fragment)
# chain: AVKVYTPVASRQSLKQGSRLMDNFLIREMSGSTSELLIKENKSKFSPQKEASPAAKTKETRSVEEIAPDPSEAKRPEPPSTSTLKQVTKVDCPVCGVNIPESHINKHLDSCLSREEKKESLRSSVHKRKPLPKTVYNLLSDRDLKKKLKEHGLSIQGNKQQLIKRHQEFVHMYNAQCDALHPKSAAEIVREIENIEKTRMRLEASKLNESVMVFTKDQTEKEIDEIHSKYRKKHKSEFQLLVDQARKGYKKIAGMSQKTVTITKEDESTEKLSSVCMGQEDNMTSVTNHFSQSKLDSPEELEPDREEDSSSCIDIQEVLSSSESDSCNSSSSDIIRDLLEEEEAWEASHKNDLQDTEISPRQNRRTRAAESAEIEPRNKRNRN
# B2: RAD18^ΔC1 (residues 1-341), His-tagged or FLAG-tagged (domain or fragment)
# chain: MDSLAESRWPPGLAVMKTIDDLLRCGICFEYFNIAMIIPQCSHNYCSLCIRKFLSYKTQCPTCCVTVTEPDLKNNRILDELVKSLNFARNHLLQFALESPAKSPASSSSKNLAVKVYTPVASRQSLKQGSRLMDNFLIREMSGSTSELLIKENKSKFSPQKEASPAAKTKETRSVEEIAPDPSEAKRPEPPSTSTLKQVTKVDCPVCGVNIPESHINKHLDSCLSREEKKESLRSSVHKRKPLPKTVYNLLSDRDLKKKLKEHGLSIQGNKQQLIKRHQEFVHMYNAQCDALHPKSAAEIVREIENIEKTRMRLEASKLNESVMVFTKDQTEKEIDEIHSK
# Columns and labels:
# human RAD6A = human RAD6A (human, UniProt P49459 1-152); assay: pull-down
# [1] = target: human RAD18, wild type, His-tagged or FLAG-tagged (human, UniProt Q9NS91 1-495); assay: pull-down
Binder,binding result (human RAD6A),binding result [1]
B1,binds,
B2,,binds
